From patent US20250361268A1, “NOVEL ANTI-INFLAMMATORY PEPTIDE AND USE THEREOF” (NOVACELL TECHNOLOGY INC., priority 2022, published 2025)

T1: FPR1 (UniProt P21462 1-350, limits assumed)
T1 sequence (looked up): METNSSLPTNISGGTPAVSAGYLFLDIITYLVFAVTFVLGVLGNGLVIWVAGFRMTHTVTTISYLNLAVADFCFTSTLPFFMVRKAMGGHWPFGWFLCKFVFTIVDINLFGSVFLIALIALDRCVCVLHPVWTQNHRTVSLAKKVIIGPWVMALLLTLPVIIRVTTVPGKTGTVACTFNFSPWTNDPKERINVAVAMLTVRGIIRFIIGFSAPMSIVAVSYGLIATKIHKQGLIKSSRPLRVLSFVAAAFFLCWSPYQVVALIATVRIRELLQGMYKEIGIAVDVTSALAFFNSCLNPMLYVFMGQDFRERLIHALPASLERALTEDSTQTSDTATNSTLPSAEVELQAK

B1: peptide of SEQ ID NO 88 (peptide)
peptide: MRYWYM
HELM: PEPTIDE1{[CCCCCCCC(=O)[*:2]].M.R.Y.W.Y.[dM].[am]}$$$$V2.0
SMILES: CCCCCCCC(=O)N[C@@H](CCSC)C(=O)N[C@@H](CCCNC(=N)N)C(=O)N[C@@H](Cc1ccc(O)cc1)C(=O)N[C@@H](Cc1c[nH]c2ccccc12)C(=O)N[C@@H](Cc1ccc(O)cc1)C(=O)N[C@H](CCSC)C(N)=O
B2: peptide of SEQ ID NO 128 (peptide)
peptide: IKFWYM
HELM: PEPTIDE1{I.K.F.W.Y.[dM].[am]}$$$$V2.0; N-terminus assumed
SMILES: CC[C@H](C)[C@H](N)C(=O)N[C@@H](CCCCN)C(=O)N[C@@H](Cc1ccccc1)C(=O)N[C@@H](Cc1c[nH]c2ccccc12)C(=O)N[C@@H](Cc1ccc(O)cc1)C(=O)N[C@H](CCSC)C(N)=O
B3: peptide of SEQ ID NO 84 (peptide)
peptide: RMRYWYM
HELM: PEPTIDE1{[CCCCCCCC(=O)[*:2]].R.M.R.Y.W.Y.[dM].[am]}$$$$V2.0
SMILES: CCCCCCCC(=O)N[C@@H](CCCNC(=N)N)C(=O)N[C@@H](CCSC)C(=O)N[C@@H](CCCNC(=N)N)C(=O)N[C@@H](Cc1ccc(O)cc1)C(=O)N[C@@H](Cc1c[nH]c2ccccc12)C(=O)N[C@@H](Cc1ccc(O)cc1)C(=O)N[C@H](CCSC)C(N)=O
B4: peptide of SEQ ID NO 90 (peptide)
peptide: MKYWYM
HELM: PEPTIDE1{[ac].M.K.Y.W.Y.[dM].[am]}$$$$V2.0
SMILES: CSCC[C@H](NC(C)=O)C(=O)N[C@@H](CCCCN)C(=O)N[C@@H](Cc1ccc(O)cc1)C(=O)N[C@@H](Cc1c[nH]c2ccccc12)C(=O)N[C@@H](Cc1ccc(O)cc1)C(=O)N[C@H](CCSC)C(N)=O
B5: peptide of SEQ ID NO 12 (peptide)
peptide: KMKYKVM
HELM: PEPTIDE1{[CCCCCCCC(=O)[*:2]].K.M.K.Y.K.V.[dM].[am]}$$$$V2.0
SMILES: CCCCCCCC(=O)N[C@@H](CCCCN)C(=O)N[C@@H](CCSC)C(=O)N[C@@H](CCCCN)C(=O)N[C@@H](Cc1ccc(O)cc1)C(=O)N[C@@H](CCCCN)C(=O)N[C@H](C(=O)N[C@H](CCSC)C(N)=O)C(C)C
B6: peptide of SEQ ID NO 10 (peptide)
peptide: KMKYKVM
HELM: PEPTIDE1{[ac].K.M.K.Y.K.V.[dM].[am]}$$$$V2.0
SMILES: CSCC[C@H](NC(=O)[C@H](CCCCN)NC(C)=O)C(=O)N[C@@H](CCCCN)C(=O)N[C@@H](Cc1ccc(O)cc1)C(=O)N[C@@H](CCCCN)C(=O)N[C@H](C(=O)N[C@H](CCSC)C(N)=O)C(C)C
B7: peptide of SEQ ID NO 9 (peptide)
peptide: KMKYKVM
HELM: PEPTIDE1{K.M.K.Y.K.V.[dM].[am]}$$$$V2.0; N-terminus assumed
SMILES: CSCC[C@H](NC(=O)[C@@H](N)CCCCN)C(=O)N[C@@H](CCCCN)C(=O)N[C@@H](Cc1ccc(O)cc1)C(=O)N[C@@H](CCCCN)C(=O)N[C@H](C(=O)N[C@H](CCSC)C(N)=O)C(C)C
B8: peptide of SEQ ID NO 91 (peptide)
peptide: MKYWYM
HELM: PEPTIDE1{[CCCC(=O)[*:2]].M.K.Y.W.Y.[dM].[am]}$$$$V2.0
SMILES: CCCC(=O)N[C@@H](CCSC)C(=O)N[C@@H](CCCCN)C(=O)N[C@@H](Cc1ccc(O)cc1)C(=O)N[C@@H](Cc1c[nH]c2ccccc12)C(=O)N[C@@H](Cc1ccc(O)cc1)C(=O)N[C@H](CCSC)C(N)=O
B9: peptide of SEQ ID NO 126 (peptide)
peptide: MRYYYM
HELM: PEPTIDE1{[ac].M.R.Y.Y.Y.[dM].[am]}$$$$V2.0
SMILES: CSCC[C@H](NC(C)=O)C(=O)N[C@@H](CCCNC(=N)N)C(=O)N[C@@H](Cc1ccc(O)cc1)C(=O)N[C@@H](Cc1ccc(O)cc1)C(=O)N[C@@H](Cc1ccc(O)cc1)C(=O)N[C@H](CCSC)C(N)=O

Target: T1, FPR1
Assay: cell-based or functional assay

Row | EC50 for [Ca2+] [µM] | Binder
1 | > 10 | B1
2 | > 10 | B2
3 | > 10 | B3
4 | > 10 | B4
5 | > 10 | B5
6 | > 10 | B6
7 | > 10 | B7
8 | > 10 | B8
9 | > 10 | B9
